# Experimental data reported in US20260078175A1 (Boehringer Ingelheim, published 2026).
# T1: Rat Sema3A (rat, UniProt Q63548 21-772, limits assumed)
# T1 construct: Construct not described
# T1 sequence (looked up): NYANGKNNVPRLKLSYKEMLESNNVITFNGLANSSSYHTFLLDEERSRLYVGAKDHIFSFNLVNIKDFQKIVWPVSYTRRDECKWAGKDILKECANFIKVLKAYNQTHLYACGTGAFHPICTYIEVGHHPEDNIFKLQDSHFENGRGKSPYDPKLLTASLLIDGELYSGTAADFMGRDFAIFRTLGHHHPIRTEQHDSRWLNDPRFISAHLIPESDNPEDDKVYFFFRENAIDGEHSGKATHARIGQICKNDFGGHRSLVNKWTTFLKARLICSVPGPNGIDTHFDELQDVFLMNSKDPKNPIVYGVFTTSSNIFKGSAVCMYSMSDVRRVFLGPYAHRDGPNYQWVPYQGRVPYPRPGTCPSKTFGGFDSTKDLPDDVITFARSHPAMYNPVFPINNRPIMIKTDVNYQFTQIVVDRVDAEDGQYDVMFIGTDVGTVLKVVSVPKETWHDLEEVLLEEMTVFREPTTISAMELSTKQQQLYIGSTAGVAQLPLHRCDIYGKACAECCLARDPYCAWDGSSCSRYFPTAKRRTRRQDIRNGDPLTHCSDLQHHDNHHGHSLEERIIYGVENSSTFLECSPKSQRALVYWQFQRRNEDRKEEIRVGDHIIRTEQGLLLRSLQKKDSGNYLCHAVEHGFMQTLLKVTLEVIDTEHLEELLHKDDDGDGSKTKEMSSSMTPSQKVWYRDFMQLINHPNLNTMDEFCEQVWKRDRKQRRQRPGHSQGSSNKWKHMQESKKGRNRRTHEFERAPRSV
# T2: Mouse Sema3A (mouse, UniProt O08665 21-772, limits assumed)
# T2 construct: Construct not described
# T2 sequence (looked up): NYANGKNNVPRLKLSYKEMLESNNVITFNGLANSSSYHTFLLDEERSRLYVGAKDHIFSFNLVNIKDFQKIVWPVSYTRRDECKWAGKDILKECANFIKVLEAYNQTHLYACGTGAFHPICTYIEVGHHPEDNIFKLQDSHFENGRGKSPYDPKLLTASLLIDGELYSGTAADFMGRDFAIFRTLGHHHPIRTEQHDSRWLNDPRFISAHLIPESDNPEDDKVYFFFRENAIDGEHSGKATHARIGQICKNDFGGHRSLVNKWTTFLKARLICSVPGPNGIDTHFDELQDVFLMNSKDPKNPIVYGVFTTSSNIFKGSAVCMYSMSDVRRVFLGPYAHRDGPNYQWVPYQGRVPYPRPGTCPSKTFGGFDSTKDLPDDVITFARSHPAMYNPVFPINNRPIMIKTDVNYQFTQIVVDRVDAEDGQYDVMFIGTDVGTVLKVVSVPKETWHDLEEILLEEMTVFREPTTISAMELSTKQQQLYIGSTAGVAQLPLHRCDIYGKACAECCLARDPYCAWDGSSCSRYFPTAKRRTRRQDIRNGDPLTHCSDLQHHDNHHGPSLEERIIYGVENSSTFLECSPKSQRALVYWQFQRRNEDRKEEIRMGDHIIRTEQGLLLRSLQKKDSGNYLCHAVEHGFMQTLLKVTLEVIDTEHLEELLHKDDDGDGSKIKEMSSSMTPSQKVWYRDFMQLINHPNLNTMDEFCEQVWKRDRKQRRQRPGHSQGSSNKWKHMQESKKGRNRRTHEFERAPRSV
# T3: Human semaphorin 3A (Sema3A) (human, UniProt Q14563 21-771)
# T3 construct: also called human Sema3A; HuSema3A
# T3 sequence: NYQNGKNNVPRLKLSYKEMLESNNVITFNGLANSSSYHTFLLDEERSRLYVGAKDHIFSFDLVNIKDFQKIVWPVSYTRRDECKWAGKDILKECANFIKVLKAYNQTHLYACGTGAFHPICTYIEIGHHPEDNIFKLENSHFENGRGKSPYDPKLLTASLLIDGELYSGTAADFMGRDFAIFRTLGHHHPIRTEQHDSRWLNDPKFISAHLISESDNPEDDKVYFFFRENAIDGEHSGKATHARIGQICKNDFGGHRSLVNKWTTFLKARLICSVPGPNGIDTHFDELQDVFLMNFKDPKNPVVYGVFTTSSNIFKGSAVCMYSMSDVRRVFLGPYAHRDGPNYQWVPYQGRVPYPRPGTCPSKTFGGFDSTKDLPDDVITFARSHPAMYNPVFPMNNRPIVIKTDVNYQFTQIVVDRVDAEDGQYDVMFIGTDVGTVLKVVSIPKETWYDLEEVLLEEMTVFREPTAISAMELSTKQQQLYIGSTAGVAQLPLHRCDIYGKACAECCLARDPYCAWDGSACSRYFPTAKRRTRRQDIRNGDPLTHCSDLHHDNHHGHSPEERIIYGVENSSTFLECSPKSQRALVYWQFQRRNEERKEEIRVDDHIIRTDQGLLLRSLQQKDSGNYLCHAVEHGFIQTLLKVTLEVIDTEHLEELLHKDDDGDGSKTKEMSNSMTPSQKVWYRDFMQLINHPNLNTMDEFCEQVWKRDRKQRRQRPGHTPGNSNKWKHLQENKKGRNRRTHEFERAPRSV
# T4: Rabbit Sema3A (rabbit, UniProt G1T285 21-770)
# T4 construct: Construct not described
# T4 sequence: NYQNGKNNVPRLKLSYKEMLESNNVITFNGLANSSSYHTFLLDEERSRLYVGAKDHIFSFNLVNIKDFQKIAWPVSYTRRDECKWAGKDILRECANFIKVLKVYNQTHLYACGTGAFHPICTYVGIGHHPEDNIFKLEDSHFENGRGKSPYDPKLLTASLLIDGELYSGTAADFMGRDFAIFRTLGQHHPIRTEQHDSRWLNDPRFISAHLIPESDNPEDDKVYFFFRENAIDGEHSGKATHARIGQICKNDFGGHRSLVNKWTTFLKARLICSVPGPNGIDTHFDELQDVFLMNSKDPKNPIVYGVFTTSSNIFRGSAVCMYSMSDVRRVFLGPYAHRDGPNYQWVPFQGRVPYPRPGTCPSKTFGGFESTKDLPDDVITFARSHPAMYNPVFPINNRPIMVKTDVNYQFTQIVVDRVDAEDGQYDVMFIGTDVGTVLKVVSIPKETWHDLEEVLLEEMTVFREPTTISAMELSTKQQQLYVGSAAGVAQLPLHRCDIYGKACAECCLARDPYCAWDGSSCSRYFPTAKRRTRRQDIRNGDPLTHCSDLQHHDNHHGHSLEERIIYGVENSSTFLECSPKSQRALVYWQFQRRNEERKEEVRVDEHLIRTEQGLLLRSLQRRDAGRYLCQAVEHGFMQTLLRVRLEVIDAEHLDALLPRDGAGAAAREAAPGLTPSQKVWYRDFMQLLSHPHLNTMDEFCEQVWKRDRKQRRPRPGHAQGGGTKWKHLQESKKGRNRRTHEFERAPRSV
# Key:
# [1] = target: Cynomolgus Sema3A (cynomolgus); experiment: SPR (GLM sensorchip), antibody captured on Human Fab Binder, Sema3A as analyte, 1:1 Langmuir fit
# Rat Sema3A [2] = target: T1, Rat Sema3A; experiment: SPR (BioRad GLM chip), antibody captured on goat anti-human IgG, Sema3A as analyte, 1:1 Langmuir fit
# Mouse Sema3A [3] = target: T2, Mouse Sema3A; experiment: as above
# [4] = target: T3, Human semaphorin 3A (Sema3A); experiment: as above
# Rabbit Sema3A [5] = target: T4, Rabbit Sema3A; experiment: as above
# Rat Sema3A [6] = target: T1, Rat Sema3A; experiment: SPR (GLM sensorchip), antibody captured on Human Fab Binder, Sema3A as analyte, 1:1 Langmuir fit
# Procedure: (§1) The running buffer for this experiment and all dilutions (except where stated) were done in PBS-T-EDTA with 0.01% Tween20 [100 ul of 100% Tween20 was added to 2L of PBS-T-EDTA to make final Tween 20 concentration of 0.01%]. The GLM sensorchip was normalized and pre-conditioned as per the manufacturer's recommendations. The sensorchip was activated with equal mixture of EDC/s-NHS in the horizontal direction for 300 sec at a flow rate of 30 μl/min and immobilized with Human Fab Binder (10 μg/ml in 10 mM acetate pH 5.0) in the horizontal direction for 300 sec at a flowrate of 30 μl/min resulting in ˜6739-7414 RU of Human Fab Binder on the surface. The sensorchip was deactivated with 1M ethanolamine HCl in the horizontal direction for 300 sec at a flowrate of 30 μl/min. The sensorchip was stabilized with 18 sec of 10 mM glycine, pH 2.1 at a flowrate of 100 μl/min 1 time horizontally and 1 time vertically.
# (§2) The inventors tested an exemplary antibody according to the invention (clone I). Said antibody (0.5 μg/ml) was captured on the Human Fab Binder surface vertically for 300 sec at a flowrate of 25 μl/min resulting ˜180 RU capture level. The baseline was stabilized by injecting PBS-T-EDTA for 60 sec at a flowrate of 40 μl/min horizontally. The analyte was injected horizontally over the captured antibody for 600 sec at a flowrate of 40 μl/min and a dissociation for 7200 sec. The concentrations of the analytes were 0 nM, 0.625 nM, 1.25 nM, 2.5 nM, 5 nM, and 10 nM. The surface was regenerated by injecting 10 mM glycine, pH 2.1 for 18 sec at a flowrate of 100 μl/min one time horizontally and one time vertically. PBS-T-EDTA was injected for 60 sec at a flowrate of 25 μl/min one time vertically.
# (§3) The interspot (interactions with sensor surface) and blank (PBS-T-EDTA with 0.01% Tween20 or 0 nM analyte) were subtracted from the raw data.
# Mouse Sema3A [7] = target: T2, Mouse Sema3A; experiment: as above
# Procedure: as §1, §2, §3
# [8] = target: T3, Human semaphorin 3A (Sema3A); experiment: as above
# Procedure: as §1, §2, §3
# Rabbit Sema3A [9] = target: T4, Rabbit Sema3A; experiment: as above
# Procedure: as §1, §2, §3
# [10] = target: Cynomolgus Sema3A (cynomolgus); experiment: SPR (BioRad GLM chip), antibody captured on goat anti-human IgG, Sema3A as analyte, 1:1 Langmuir fit
# [11] = target: T3, Human semaphorin 3A (Sema3A); experiment: SPR (BioRad GLM chip), antibody captured on anti-human Fab antibody, human Sema3A as analyte, 1:1 Langmuir fit
# Procedure: A high surface density of anti-human Fab antibody (GE Healthcare) was immobilized over a GLM chip (BioRad) via direct amine coupling over 6 horizontal channels according to the BioRad manufacturer's manual.
# The antibody of the invention (clone 1) and the Chiome antibodies were captured over the anti-human Fab antibody surface over 5 of 6 vertical channels with a minimum surface density for the kinetic binding assay. Human Sema3A was prepared in PBS-T-EDTA buffer (BioRad) at concentrations of 100, 50, 25, 12.5, 10, 6.25, 5, 2.5, 1.25, 0.625 and 0 nM. A PBS-T-EDTA buffer injection was used as a double reference for the kinetic data analysis. Each of the human Sema3A solutions and PBS-T-EDTA buffer were injected simultaneously over the 6 horizontal channels for 10 min at a flow rate of 40 μL/min followed by 2 hr dissociation phase. The surfaces were regenerated by an 18 sec injection of 10 mM pH 2.1 glycine HCl (GE Healthcare) at a flow rate of 100 μL/min followed by an injection of 60 sec PBS-T-EDTA at a flow rate of 25 μL/min.
binder,measurement,setting,value
"Antibody of the invention (clone I) (antibody, human IgG1, kappa, L234A L235A, V domains shown, also called clone 1; anti-Sema3A antibody of the invention) VH: EVQLVESGGGLVQPGGSLRLSCAASGFTFSSYYMSWVRQAPGKGLEWVSTIIKSGGYAYYPDSVKDRFTISRDNSKNTLYLQMSSLRAEDTAVYYCVRGGQGAMDYWGQGTTVTVSS VL: EIVLTQSPATLSLSPGERATLSCRASQSIGDYLHWYQQKPGQAPRLLIKYASQSISGIPARFSGSGSGTDFTLTITSLEPEDFAVYYCQQGYSFPYTFGGGTKLEIKR",Kd,[1],0.028 nM
same,Kd,Rat Sema3A [2],0.0235 nM
same,Kd,Mouse Sema3A [3],0.035 nM
same,Kd,[4],0.0347 nM
same,Kd,Rabbit Sema3A [5],0.0401 nM
same,Kd,Rat Sema3A [6],0.027 nM
same,Kd,Mouse Sema3A [7],0.027 nM
same,Kd,[8],0.029 nM
same,Kd,Rabbit Sema3A [9],0.042 nM
same,Kd,[10],0.035 nM
same,Kd,[11],0.032 nM
